# Test: soluble fraction after stress (log2 fold change); higher = more stays soluble; pooled small domains, quantitative proteomics
# Settings: stress: 50 degC
# Method in brief: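 After stress at 50°C, the amount of each protein still soluble was measured. This was done on pooled custom libraries of small protein domains, using high-throughput quantitative proteomics. The figure given is a base-two log fold change and stands for aggregation propensity, with higher values meaning more protein stays in solution.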
row,Sequence,soluble fraction (log2)
1,HMKKSGFFSAGDRIQLTDNKGRQYSFNITEGKEFHTHQGFIKHDDLIGMPEGSVVSINSTTGVVQKFMAF,-0.164
2,HMISAEPVGEDLFKVAFPFLGGSTVFEKTIEQFIEEHPSKRIDHIYTVPNPLRLKKADALIFYIITEEK,-1.02
3,HMPPAIKTLMFMIQNKSLLKSPKQLAVVQQQLKKIKGVRDVLILLEEGKVMLKVNKHETIHEASIIRLLGG,-0.521
4,HMNENFPYRLKEMVVVQSRTWPGINKPGGVGQVMKINPEAGTVNVKYVLGGSEKNIELKYVTSNDLNSK,-0.536
5,HMKTYSEAQLKIALESLIENGKKQGYLTFQEINEILPDGIINTQDLKVIISILKETGIVVAKEKPEINIDV,0.0784
6,HMQKADFDYGDYVDLGLAMGRQSRQLREAVGIKLGIGYANSKRFYQRLQTFGISLAELKQAVEEAENDQQN,-0.735
7,HMLSPAQSLLLRTAARRPDGRVIPPDTLRGGARVKVLTSLLQRGWIEPVDGGHVLTDAGYAAIG,-0.353
8,HMISTVFYVDVKGEVHHPGVYQMKAENRVKDLIEAAGGFTPLADDQKLNLAQLLEDQMVIVVPKKGEEV,0.278
9,HMKRITKKQLSQQLEQFFSSQPGKKLTLKDIFRALHLDTHPLKMLAMDIMEEMAWDDFITKKGENAYQLNT,-0.729
10,HMYRLDVEISDEIKRDIDEETLSEIKGIIAEDPRPSYQNDETRIYRFTFAGREISFRVKDRTATVTEIL,-0.0821
11,HMGELGPGSRGQAVRALQERLMALGFPLARFGADGIFGRETTGALRAFQHVAGLSPTGLGDHETLKWLGII,-0.935
12,HMSGDYRALYSSLPPERASSVVDALNVAGIPYRIQDSTGAIMVPAEQIYDARIRLAGQGLGK,0.227
13,HMVSATKAFVNGGNIVVSSPKATRVAVYNVAGQKVAEQAFAGKATIKASDFAKGIYVLKFNDNTVLKLT,-0.518
14,HMDNPLSQQEKRILQLISLGKTNQEIADILYLSNGTVRNYISSILNKLSANNRVEAARIAEEHGW,-0.73
15,HMKYLREEDYLPIGSIIRLDDRNFRVDHVNFMFKSVSLQDMDLTNSGQPIFRSESLPHIRELYEQQQNELV,-1.19
16,HMAARLMRALIPYAQGGLLAKLHEDGQVLSEEYTGEGIEVKALADEQLFGRLTVQLGEQAVSWQD,0.16
17,HMGAFAIHTASELSAGMRIRHERFGPGVITGIDTANPASGARIQVDFDNGTSKTLLLSYAKFQI,-0.622
18,HMSENKIMEIVQDLAREKSVILISHRLANVTAADKILYMEQGKIAESGTHEQLMAQNKAYAALFNKQQEL,-0.11
19,HMGGPRDVPYSTFLIEVEKGQVAEVTIQDHKITGTYKNSNEPFITNAPDDPDLVSRLIKYGVGVQAKPPE,-0.0153
20,HMQEAGLITQRIREMREKENWTQEYMAEQLGMSENGYAKIERGESNLSLKRLQQIADIFEVESAELLK,0.0493
21,HMAANKIDEDRNTELLQVIQNKFPDADAATKKSVKEIMKEHDIPNFKNADDIPTAVLEQIVKVLNQ,0.323
22,HMDTIYPFNPNFIDDYKGYVLGLNTNEIDRLLKYRSKGNWINSAEDFKKVTGIDDALLNKLSKSFKFPDWL,-1.44
23,HMGKVNTRNRNEGKFYKNGKKKPANWEYRFEAAPVNGKRQQISDAGYPTEKAAYEAGIAAYEKYNSAGSVN,0.0482
24,HMKISDLPAAQVYREIVHAWPKAAAYADLAPINNGGMQRWRDVVHEWVLRGYNPANLRGMLEWYKAGIPTR,-0.398
25,HMFTIGENIRDLRLERAITQEQLAEQLNVSAPAVSKWERGEAYPDITLVPKLAEILGVSTDKLFGVD,-0.0643

row,Sequence,soluble fraction (log2)
1,HMETEAGIKAYLSSSMIKGIGPVTAQRIVERFGKRTLYVLDQMPEKLLDISGISEAKLEEILNGYRKS,-0.24
2,HMGWEDLVGKTAVVKVALAPVGMVFFRGEFWSAISETGRIEPGEEVTISRIDGLKLYVTKKRIM,-0.607
3,HMKEVVKVTITPSEKLKSQYPDALVSIDGKFYDLGILNNPVEFYMDKDHKISIIWSTAELVESFRI,-0.00922
4,HMGDTHKVPGVKGVNVEQAMDMLSRLDLKAVVIDSVYVKDKKLGTVIEQNPVEGSVVKPGRPIYLVVNSRS,0.242
5,HMIESFQNGLVEHDQFTRPNPWVTPNFSKIEVPSILLSGKHADIDLWKHQNSIENTKKNRPDLFKNYLKKN,0.211
6,HMAYLTGFHAIEELIRAGKAKGPLLVANAGPRARTIMSLATDNKIRIDRLGEHELNRLAPGNRGIALYVE,0.13
7,HMNNLVGKTKVLKSNTNIYAYKTMSGKFYSYLPNTRVRVLQDLGYINYIEVIATKRRGYVYENVY,-0.0937
8,HMTHPQVEAYLDDLARMLADIDPGERDDILASVREHLDAEIAAGHGSDAVVNATLLRLGPPEQVAAAARTN,-0.0824
9,HMFINITAITGNNYNTPDAARNALPNTYNKKIGLVFTYRDLTNRYRVYLYNSETSNYIPLDSYM,-3.39
10,HMEQISDEDTLRKMVNEVLDNNQTQLEQYKSGKTNLIGFFVGQTLKKSAGKANPSIVNKLVNEEIYI,0.00998
11,HMISFTDLEHIEKMIENVLYTKTPLNLPPTDAKIRKIEHQIARRYGLNSESFGDEPRRFVVVYPNEERE,-0.625
12,HMKTVPNVEGEKDGTAQSAIESAGLKVGKVTYQYDDNTSKGLVISQSVKGGEKVKPNTAIDLVVSNGPK,0.0173
13,HMINGTITFYDDTTLKGELSSLDTKYLFIIPNGLVMPEKIAVSDIEYFNLDNGITLIQDGISKQTY,-1.25
14,HMADLPQATALADVKGDVQMQGIQFGYDPEKIIIHDLNLHARPGSLVAIVGPTGAGKTTIINLLMRFYD,-0.313
15,HMDDGALQIRLGPQALQQRLDKLGYSLNKEDLDLVYQYFLHSADSKGAVYDQELRELMGEAGVE,-0.0408
16,HMPIRMLQVQKTNTGYLNVRDTPSVSGALIGKVFPGDMLSSTEERDGWFLVAVPQGGTGWVSGDYVKTTS,-0.0387
17,HMTKTKADKIDYAIGDSGTEPPTEDKWTDLAHLPLIKAGQFQWTRRTEYYSDGSTAVSYNIAKSE,0.0286
18,HMNGDYFEYRYAVNGSRSTPPSLSKTSRNPSGWSTTVPTVGNLQYLWFTVAKINGETNSLIQNWSTPARQT,-0.13
19,HMEGVSPQTVQEHIRRFIAAEDPASPLSDEALREALGNLGINASRRTVAKYRGEMGIPSSAQRKR,-0.053
20,HMVLMPIDALRGSSSSSEMRIAAVKFSPSKGWYFSLQERSDEGSSYYEQKVASDGSVSERVKVR,-0.561
21,HMLPLGSNEYETAVIKHLASGVQDADEIQRLTGIDQTSLNTALTMLELAGTIRPLGNNHWTL,0.167
22,HMLDLNEVEFYAIENQLKENLKIDSKRFYELVPLIKGYQEDDIIQVLRWLIDNNRIIRHKDESLTWHS,-1.61
23,HMKNQIGFKIKNARRKASISQADLSAKLGISSSYLNLIESGKRNVNVDLLLKVSDVLNIELKDLSK,-0.781
24,HMTGGLLVHVAGAVGAPGVVSLPEGARVVDAIEAAGGAREDADTDQLNLARPVVDGEQVRVPVVGEVLE,-0.0748
25,HMTKIAFPQMLNKYRLQKNLTMEQLAEEVGKTKSTISKWEAGTRSPKIYEIEEIAKYFGVEPQTMMF,-0.453

row,Sequence,soluble fraction (log2)
1,HMNYIGADAAKNMAAADAQVDTANASFSGANLGEKNGLSYYQVDFTANGREYHYAIDAMTGTVIESSSAAS,0.124
2,HMEQFDFTILRELRKRAGLSIGEVSAESGVSAAVISKLERNRTRAELDTLYRLARVFGITAAELLNLAEA,-2.06
3,HMPPALTELLSVRTNASGTIDYLLPDRSAGLRVENGSKYSGMVPDSIYRLVAIYEIKDAKEPSAYIYTI,-0.00921
4,HMSELLIVGSEQDNTRLDRFLADQYEEYTRSFLQKLIDQGNVSINGISVKKSGIKLKENDEIAVTLPEPQ,0.389
5,HMKVTTGIDGLIGEEGVALSDFSGKGKIMVHGEIWNAEFSGEVKKGEVLLVEKANGMTLITRKKN,0.561
6,HMYSQIGYGSSGSDVRKLQEILNGKGYNLSVDGQFGAKTKSAVRDYQSKNGLSVDGIVGVNTWGKLT,-0.0169
7,HMAPAPDEAFAEFVRSSAPSLTRTAWLLTGDRGHAQDLVQNAYAKTLQAWGRLDAEGALAYTRRAVIT,0.00536
8,HMEPEVEITYFKPDERKAGGAYVTVTGAVIKVDDFERLITMQDGTKIPMDDILSIDGELFLS,-0.333
9,HMSGEPKNERQIEVPDVTKKSIREANNILTSEGLRLRIEGTGLAVSQKPAAGTMVEPDTIITVTFQAP,0.35
10,HMEKKPYGEMHNVMLTDEELEKLRHDYPAHFAEYIQRLSLHIDAKGARYKSHYAVIRKWLIADGVKA,-0.679
11,HMLKPIHKDWSPNGDAKEILLKAGITEEFIQKELPEFIMYWSERNEESDIWNSKFIAHIRRRWGRFS,-1.14
12,HMKSISMANGNVQLRINGVLASSLEVAALSPEDIKRVEYHDNPGLRYGEGIDIVLDYITIKRT,-0.384
13,HMQPPKIISTVEPYREVVREYLKQGVEMTAIWQRLRENYQYTGSYSSVRRFVAQLEPRQPEA,-1.01
14,HMESIAEIDRMNAKIFMDEFQDSLSIMQKTTNPETFFSRYDLAMERLDNMVELQQKGIKFTSDLSSLKAQ,0.0074
15,HMRDLAEAETILDALPTRLRKIVRWRHLEGLSQTEIAARLEISQMHVSRLYRRAISMIHASLADD,-0.0123
16,HMDSVVPNVVGMTAEKANKALTDAGLNVKITGATIGSGAVVHSQSIPAGTVTSKGTVVSIEMRFAAAEGD,-0.135
17,HMERPLFVIEDYRRFAGNEVEISLKKGGKKIRGVIAGTPSDAEVTVRTQGGETTVPLGDVKRAHLVYV,0.123
18,HMAEMLENQLKHAKSKQEANEYIAAAIGGVSDDDPDKEYLVAAYNEISKEFHHSSAYHRLPDT,-0.0511
19,HMEPLKLGDATGDGKINLQDVLEMQKHMAGILVLKGKFFTAADVNGNGKIELVDVLSVQKYLAGVTAEV,0.00939
20,HMGNWEQQLRSWADGELATGKQDILTTAVPAFERALIETALSHTNGRKRDAAELLGWGRNTLTRKLKELGM,-0.371
21,HMQAVDPLELRAGDFVVHEQHGIGRYVEMVQRTIGGITREYLVIEYAPAKRGQPNDRVFVPTDTLEQVS,-0.514
22,HMQMLQDPFLNALRKEHVPVSIYLVNGIKLQGQVESFDQYVVLLRNTSVTQMVYKHAISTIVPARAVSL,-0.403
23,HMGPLTMGQRIVRLRTQAGLSQDALAEQLGVSRQSVSKWETDGSVPDLDRLVKLSKVFGVTLDELVKG,-0.024
24,HMNQAIIVPDVKGLPLEEATTFFENNDLRYTVIDSVYTKDVPPGAIYEMVPGAGSKVKEGRIIFVTLNAR,-0.314
25,HMKQLNKRQDDILSLAEKEGYVSVENLAKTFTVSQQTIRRDINYLSDHEFLVRTHGGAFYSSG,0.00837
